First the molecules themselves.
B1: DC00067 (other)
chain 1: EVQLVESGGGLVQTGGSLRLSCAASGGTFSRDAMAWFRQVPGKEREFVALISWSGATTNYADSVKGRFAISRDNGKNTVYLQMNRLKPADTAIYYCAADRRPMGSRSYFEPTEYDDWGQGTQVTVSSGGGGSGGGGSGGGGSQVQLVESGGGLVQPGGSLRLSCATSGFTFRNNFMSWVRQAPGKGLEWVSTISYGGESTTYAESVKGRFTISRDNAKNTLYLQMNNLKPEDTAVYYCAKATSYDSIRSGSRGQGTQVTVSSDKTHTCPPCPAPEAAGGPSVFLFPPKPKDTLMISRTPEVTCVVVDVSHEDPEVKFNWYVDGVEVHNAKTKPREEQYNSTYRVVSVLTVLHQDWLNGKEYKCKVSNKALGAPIEKTISKAKGQPREPQVYTLPPSRDELTKNQVSLTCLVKGFYPSDIAVEWESNGQPENNYKTTPPVLDSDGSFLLYSKLTVDKSRWQQGNVFSCSVMHEALHNHYTQKSLSLSPGK
chain 2: QVQLVESGGGLVQAGGSLTLSCAAPGRTFGTDVVGWFRQAPGKEREFVASISRSGDGIYYDDSVKGRFTISRNNAWNTVNLQMNSLKVEDTAVYYCAAGDGWSTYDYWGQGTQVTVSSGGGGSGGGGSGGGGSEVQLVESGGGLVQTGGSLRLSCAASGGTFSRDAMAWFRQVPGKEREFVALISWSGATTNYADSVKGRFAISRDNGKNTVYLQMNRLKPADTAIYYCAADRRPMGSRSYFEPTEYDDWGQGTQVTVSSGGGGSGGGGSGGGGSQVQLVESGGGLVQPGGSLRLSCATSGFTFRNNFMSWVRQAPGKGLEWVSTISYGGESTTYAESVKGRFTISRDNAKNTLYLQMNNLKPEDTAVYYCAKATSYDSIRSGSRGQGTQVTVSSDKTHTCPPCPAPEAAGGPSVFLFPPKPKDTLMISRTPEVTCVVVDVSHEDPEVKFNWYVDGVEVHNAKTKPREEQYNSTYRVVSVLTVLHQDWLNGKEYKCKVSNKALGAPIEKTISKAKGQPREPQVYTLPPSRDELTKNQVSLTCLVKGFYPSDIAVEWESNGQPENNYKTTPPVLDSDGSFFLYSRLTVDKSRWQQGNVFSCSVMHEALHNHYTQKSLSLSPGK
B2: DC00069 (other)
chain 1: EVQLVESGGGLVQTGGSLRLSCAASGGTFSRDAMAWFRQVPGKEREFVALISWSGATTNYADSVKGRFAISRDNGKNTVYLQMNRLKPADTAIYYCAADRRPMGSRSYFEPTEYDDWGQGTQVTVSSGGGGSGGGGSGGGGSQVQLVESGGGLVQPGGSLRLSCATSGFTFRNNFMSWVRQAPGKGLEWVSTISYGGESTTYAESVKGRFTISRDNAKNTLYLQMNNLKPEDTAVYYCAKATSYDSIRSGSRGQGTQVTVSSDKTHTCPPCPAPEAAGGPSVFLFPPKPKDTLMISRTPEVTCVVVDVSHEDPEVKFNWYVDGVEVHNAKTKPREEQYNSTYRVVSVLTVLHQDWLNGKEYKCKVSNKALGAPIEKTISKAKGQPREPQVYTLPPSRDELTKNQVSLTCLVKGFYPSDIAVEWESNGQPENNYKTTPPVLDSDGSFLLYSKLTVDKSRWQQGNVFSCSVMHEALHNHYTQKSLSLSPGK
chain 2: QVQLVESGGGLVQPGGSLRLSCATSGFTFRNNFMSWVRQAPGKGLEWVSTISYGGESTTYAESVKGRFTISRDNAKNTLYLQMNNLKPEDTAVYYCAKATSYDSIRSGSRGQGTQVTVSSGGGGSGGGGSGGGGSQVQLVESGGGLVQAGGSLTLSCAAPGRTFGTDVVGWFRQAPGKEREFVASISRSGDGIYYDDSVKGRFTISRNNAWNTVNLQMNSLKVEDTAVYYCAAGDGWSTYDYWGQGTQVTVSSGGGGSGGGGSGGGGSDKTHTCPPCPAPEAAGGPSVFLFPPKPKDTLMISRTPEVTCVVVDVSHEDPEVKFNWYVDGVEVHNAKTKPREEQYNSTYRVVSVLTVLHQDWLNGKEYKCKVSNKALGAPIEKTISKAKGQPREPQVYTLPPSRDELTKNQVSLTCLVKGFYPSDIAVEWESNGQPENNYKTTPPVLDSDGSFFLYSRLTVDKSRWQQGNVFSCSVMHEALHNHYTQKSLSLSPGK
B3: DC00070 (other)
chain 1: EVQLVESGGGLVQTGGSLRLSCAASGGTFSRDAMAWFRQVPGKEREFVALISWSGATTNYADSVKGRFAISRDNGKNTVYLQMNRLKPADTAIYYCAADRRPMGSRSYFEPTEYDDWGQGTQVTVSSGGGGSGGGGSGGGGSQVQLVESGGGLVQPGGSLRLSCATSGFTFRNNFMSWVRQAPGKGLEWVSTISYGGESTTYAESVKGRFTISRDNAKNTLYLQMNNLKPEDTAVYYCAKATSYDSIRSGSRGQGTQVTVSSDKTHTCPPCPAPEAAGGPSVFLFPPKPKDTLMISRTPEVTCVVVDVSHEDPEVKFNWYVDGVEVHNAKTKPREEQYNSTYRVVSVLTVLHQDWLNGKEYKCKVSNKALGAPIEKTISKAKGQPREPQVYTLPPSRDELTKNQVSLTCLVKGFYPSDIAVEWESNGQPENNYKTTPPVLDSDGSFLLYSKLTVDKSRWQQGNVFSCSVMHEALHNHYTQKSLSLSPGK
chain 2: QVQLVESGGGLVQAGGSLTLSCAAPGRTFGTDVVGWFRQAPGKEREFVASISRSGDGIYYDDSVKGRFTISRNNAWNTVNLQMNSLKVEDTAVYYCAAGDGWSTYDYWGQGTQVTVSSGGGGSGGGGSGGGGSQVQLVESGGGLVQPGGSLRLSCATSGFTFRNNFMSWVRQAPGKGLEWVSTISYGGESTTYAESVKGRFTISRDNAKNTLYLQMNNLKPEDTAVYYCAKATSYDSIRSGSRGQGTQVTVSSDKTHTCPPCPAPEAAGGPSVFLFPPKPKDTLMISRTPEVTCVVVDVSHEDPEVKFNWYVDGVEVHNAKTKPREEQYNSTYRVVSVLTVLHQDWLNGKEYKCKVSNKALGAPIEKTISKAKGQPREPQVYTLPPSRDELTKNQVSLTCLVKGFYPSDIAVEWESNGQPENNYKTTPPVLDSDGSFFLYSRLTVDKSRWQQGNVFSCSVMHEALHNHYTQKSLSLSPGK

Here are results for 3 molecules from US20240409645A1 (DUALYX, published 2024).

The assay has as its target T1, human IL-2 receptor (IL-2Rα/IL-2Rβ/γc) (human, UniProt P01589 22-272; P14784 27-551; P31785 23-369).
T1 sequence 1: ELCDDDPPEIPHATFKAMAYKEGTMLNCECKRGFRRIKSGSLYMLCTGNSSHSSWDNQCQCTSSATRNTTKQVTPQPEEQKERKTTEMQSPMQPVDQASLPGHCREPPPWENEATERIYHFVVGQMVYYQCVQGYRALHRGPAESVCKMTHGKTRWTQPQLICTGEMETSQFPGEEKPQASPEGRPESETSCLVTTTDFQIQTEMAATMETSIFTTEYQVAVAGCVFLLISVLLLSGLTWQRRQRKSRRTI
T1 sequence 2: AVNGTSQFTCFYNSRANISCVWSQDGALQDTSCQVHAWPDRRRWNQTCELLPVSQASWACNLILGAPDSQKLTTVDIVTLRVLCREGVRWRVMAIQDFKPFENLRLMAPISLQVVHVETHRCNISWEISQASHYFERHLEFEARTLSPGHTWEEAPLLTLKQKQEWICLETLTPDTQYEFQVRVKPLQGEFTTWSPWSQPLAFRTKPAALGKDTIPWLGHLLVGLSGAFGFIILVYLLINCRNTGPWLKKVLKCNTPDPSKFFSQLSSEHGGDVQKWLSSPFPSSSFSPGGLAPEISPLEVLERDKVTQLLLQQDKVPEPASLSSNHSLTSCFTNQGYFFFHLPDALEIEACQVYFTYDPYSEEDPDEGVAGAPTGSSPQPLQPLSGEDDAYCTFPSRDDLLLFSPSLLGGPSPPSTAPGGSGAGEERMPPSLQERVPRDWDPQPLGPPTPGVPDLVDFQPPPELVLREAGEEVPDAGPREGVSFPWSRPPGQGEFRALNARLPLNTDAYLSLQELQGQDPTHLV
T1 sequence 3: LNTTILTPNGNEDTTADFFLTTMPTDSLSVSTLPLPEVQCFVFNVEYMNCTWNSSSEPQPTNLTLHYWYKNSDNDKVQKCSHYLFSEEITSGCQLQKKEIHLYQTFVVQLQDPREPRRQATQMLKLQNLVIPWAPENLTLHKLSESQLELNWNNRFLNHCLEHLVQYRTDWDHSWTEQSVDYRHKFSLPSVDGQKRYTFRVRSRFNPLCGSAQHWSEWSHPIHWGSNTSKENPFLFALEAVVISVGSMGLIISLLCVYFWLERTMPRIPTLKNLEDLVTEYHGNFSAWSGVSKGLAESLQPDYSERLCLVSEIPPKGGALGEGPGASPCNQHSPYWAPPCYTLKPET
The assay can be described thus: cell-based or functional assay.
Turning to B1, the “EC50 (nM) pSTAT5, NK, human PBMCs” value stood at 0.217 nM; the “EC50 (nM) pSTAT5, Treg, human PBMCs” value was less than 0.1 pM; the “Fold Max signal (% pSTAT5+) Treg/NK” value is 2 fold; the “Max signal (% pSTAT5+), NK” value was found to be 39 % pSTAT5+. Moreover, the “Max signal (% pSTAT5+), Treg” value came out at 95 % pSTAT5+ and the “fold EC50 NK/Treg” value is greater than 2180 fold.

As to B2, the “EC50 (nM) pSTAT5, NK, human PBMCs” value was 0.234 nM; the “EC50 (nM) pSTAT5, Treg, human PBMCs” value was 0.00119 nM; the “Fold Max signal (% pSTAT5+) Treg/NK” value was 7 fold; the “Max signal (% pSTAT5+), NK” value is 12 % pSTAT5+. Further, the “Max signal (% pSTAT5+), Treg” value turned out to be 87 % pSTAT5+ and the “fold EC50 NK/Treg” value was 197 fold.

In the case of B3, the “EC50 (nM) pSTAT5, NK, human PBMCs” value was determined as 0.0538 nM; the “EC50 (nM) pSTAT5, Treg, human PBMCs” value is 0.497 pM; the “Fold Max signal (% pSTAT5+) Treg/NK” value is 7 fold; the “Max signal (% pSTAT5+), NK” value came to 11 % pSTAT5+. For the same molecule, the “Max signal (% pSTAT5+), Treg” value was found to be 80 % pSTAT5+ and the “fold EC50 NK/Treg” value was 108 fold.
